# In IntAct's records for PubMed 24018422:
# B1: Sentrin-specific protease 7 (Homo sapiens), Q9BQF6 (parent)
# chain: MDKRKLGRRPSSSEIITEGKRKKSSSDLSEIRKMLNAKPEDVHVQSPLSKFRSSERWTLPLQWERSLRNKVISLDHKNKKHIRGCPVTSKSSPERQLKVMLTNVLWTDLGRKFRKTLPRNDANLCDANKVQSDSLPSTSVDSLETCQKLEPLRQSLNLSERIPRVILTNVLGTELGRKYIRTPPVTEGSLSDTDNLQSEQLSSSSDGSLESYQNLNPHKSCYLSERGSQRSKTVDDNSAKQTAHNKEKRRKDDGISLLISDTQPEDLNSGSRGCDHLEQESRNKDVKYSDSKVELTLISRKTKRRLRNNLPDSQYCTSLDKSTEQTKKQEDDSTISTEFEKPSENYHQDPKLPEEITTKPTKSDFTKLSSLNSQELTLSNATKSASAGSTTETVENSNSIDIVGISSLVEKDENELNTIEKPILRGHNEGNQSLISAEPIVVSSDEEGPVEHKSSEILKLQSKQDRETTNENESTSESALLELPLITCESVQMSSELCPYNPVMENISSIMPSNEMDLQLDFIFTSVYIGKIKGASKGCVTITKKYIKIPFQVSLNEISLLVDTTHLKRFGLWKSKDDNHSKRSHAILFFWVSSDYLQEIQTQLEHSVLSQQSKSSEFIFLELHNPVSQREELKLKDIMTEISIISGELELSYPLSWVQAFPLFQNLSSKESSFIHYYCVSTCSFPAGVAVAEEMKLKSVSQPSNTDAAKPTYTFLQKQSSGCYSLSITSNPDEEWREVRHTGLVQKLIVYPPPPTKGGLGVTNEDLECLEEGEFLNDVIIDFYLKYLILEKASDELVERSHIFSSFFYKCLTRKENNLTEDNPNLSMAQRRHKRVRTWTRHINIFNKDYIFVPVNESSHWYLAVICFPWLEEAVYEDFPQTVSQQSQAQQSQNDNKTIDNDLRTTSTLSLSAEDSQSTESNMSVPKKMCKRPCILILDSLKAASVQNTVQNLREYLEVEWEVKLKTHRQFSKTNMVDLCPKVPKQDNSSDCGVYLLQYVESFFKDPIVNFELPIHLEKWFPRHVIKTKREDIRELILKLHLQQQKGSSS
# Variants of: B1
# Settings: with cbx5_human CBX5, P45973
# cbx5_human CBX5, P45973, sequence (P45973 whole entry): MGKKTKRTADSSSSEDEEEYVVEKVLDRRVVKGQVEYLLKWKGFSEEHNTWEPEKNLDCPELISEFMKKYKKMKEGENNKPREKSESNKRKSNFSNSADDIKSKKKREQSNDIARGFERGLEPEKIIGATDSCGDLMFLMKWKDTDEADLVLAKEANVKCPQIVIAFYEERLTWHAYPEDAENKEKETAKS
row,Variant,effect of a mutation on the interaction
1,L149A;L152A;L156A;L158A;P163A;V165A,disrupting interaction

# Variants of: B1
# Settings: with tif1b_human TRIM28, Q13263
# tif1b_human TRIM28, Q13263, sequence (Q13263 whole entry): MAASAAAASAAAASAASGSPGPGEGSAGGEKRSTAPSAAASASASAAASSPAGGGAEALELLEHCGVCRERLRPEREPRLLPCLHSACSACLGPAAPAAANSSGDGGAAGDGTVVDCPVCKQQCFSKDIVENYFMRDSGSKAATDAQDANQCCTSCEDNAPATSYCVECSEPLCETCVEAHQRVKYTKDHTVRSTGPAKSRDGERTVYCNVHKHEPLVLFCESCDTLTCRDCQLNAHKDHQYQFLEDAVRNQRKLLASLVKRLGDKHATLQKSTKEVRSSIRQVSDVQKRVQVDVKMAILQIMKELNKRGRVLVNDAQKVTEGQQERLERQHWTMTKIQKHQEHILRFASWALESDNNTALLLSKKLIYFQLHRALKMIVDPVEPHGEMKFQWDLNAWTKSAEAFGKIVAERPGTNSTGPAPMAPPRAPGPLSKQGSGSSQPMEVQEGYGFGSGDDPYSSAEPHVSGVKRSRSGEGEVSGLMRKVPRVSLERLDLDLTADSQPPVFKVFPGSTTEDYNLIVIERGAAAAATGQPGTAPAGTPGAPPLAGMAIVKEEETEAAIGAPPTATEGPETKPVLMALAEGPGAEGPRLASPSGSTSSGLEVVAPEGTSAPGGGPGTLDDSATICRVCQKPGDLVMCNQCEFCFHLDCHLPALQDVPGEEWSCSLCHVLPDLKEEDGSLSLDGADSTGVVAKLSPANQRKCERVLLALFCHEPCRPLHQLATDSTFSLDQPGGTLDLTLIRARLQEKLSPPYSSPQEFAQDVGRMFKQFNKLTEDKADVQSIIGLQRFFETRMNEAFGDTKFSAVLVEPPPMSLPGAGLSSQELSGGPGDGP
row,Variant,effect of a mutation on the interaction
1,L149A;L152A;L156A;L158A;P163A;V165A,disrupting interaction

# Variants of: B1
# Settings: with tif1b_human TRIM28, Q13263
# Remark: another data set of the same source
row,Variant,effect of a mutation on the interaction
1,C992A,increasing interaction
